The values that follow come from paper PMC4139204, “Insight into the Architecture of the NuRD Complex” (The Journal of Biological Chemistry, 2014).

In test [1] the test system is RbAp48 binding to GST-H4-(1–48). The test can be described thus: Competition pulldown: GST-H4-(1–48) pulls down RbAp48 in absence and presence of full-length MTA1. Also on record: species or system human. Conditions: GST-H4-(1–48) on glutathione beads, in vitro translated 35S-labeled RbAp48, absence and presence of full-length MTA1. How it is done:
The structural data provide clear evidence that histone H4 and MTA1 bind mutually exclusively to RbAp48. […] Competition-binding experiments were performed to assess whether full-length MTA1 might inhibit the interaction of RbAp48 with H3 or FOG1 peptides and to confirm that H4 and MTA1 bind mutually exclusively to RbAp48. GST-H4-(1–48) was expressed in bacteria, immobilized onto glutathione beads, and used to pull down RbAp48 in the absence and presence of full-length MTA1 (Fig. 7A). In a complementary experiment (Fig. 7B), in vitro translated FLAG-RbAp48 was immobilized on anti-FLAG beads and used to pull down MTA1 in the absence and presence of histone H4-(1–48).
FIGURE 7. […] A, pulldown showing the binding of in vitro translated ^35S-labeled RbAp48 to GST-histone H4-(1–48) (immobilized on glutathione beads) in the absence and presence of in vitro translated MTA1. B, pulldown showing the binding of in vitro translated ^35S-labeled MTA1 to FLAG-RbAp48 (immobilized on anti-FLAG beads) in the absence and presence of histone H4-(1–48). C, pulldown assays showing the effect of adding increasing amounts of FOG1-(1–15) peptide to a complex formed between in vitro translated ^35S-labeled FLAG-RbAp48 (immobilized on anti-FLAG beads) and in vitro translated ^35S-labeled full-length MTA1 or MTA1-(530–715). […]

Test [2] relates to Nurf55 WT. The test can be described thus: Protein A affinity purification with wild-type Nurf55 bait, mass spectrometry. The format is cell-based, D. melanogaster (Dmel-2 cells). Conditions: for Number of peptides identified, Nurf55 WT: IgG beads, Dmel-2 cells; for interaction with Nurf55: wild-type Nurf55. From the text:
(§1) Full-length Nurf55 (also known as p55 and CAF1) is the D. melanogaster homolog of RbAp46/p48. It was PCR-amplified and cloned into the pDONR221 vector via the BP (recombination and insertion of the att B sequence into the att P recombination site) reaction using standard Gateway Technology (Invitrogen) protocols. Five residues in this plasmid were mutated (L35Y, E361Q, D362N, E364Q, D365N) to create pDONR-Nurf55mut using the QuikChange Lightning Site-directed Mutagenesis kit (Agilent Technologies). The resulting wild-type and mutant clones were verified by sequencing. Primer sequences for the constructs are available on request. The Nurf55 genes were then transferred into destination vectors for the inducible expression of protein A- or GFP-tagged fusion proteins by the LR (insertion of sequences containing att L sites into destination att R sites) reaction according to the manufacturer's instructions.
(§2) D. melanogaster Dmel-2 cell lines stably expressing either tagged wild-type or mutant Nurf55 (containing the L35Y, E361Q, D362N, E364Q, and D365N mutations) were established. Affinity purification of protein A- and GFP-tagged bait and interacting proteins followed by mass spectrometry identification was carried out as previously reported ([39][–][41]).
(§3) Cell lines stably expressing protein A-tagged fusion proteins of either wild-type Nurf55 or the mutant (Nurf55mut) were generated. RbAp46 shares >90 and 85% sequence identity with RbAp48 and NuRF55, respectively. […] Cellular proteins that interact with protein A-tagged Nurf55/Nurf55mut were then isolated by affinity purification on IgG beads and identified by mass spectrometry as described previously ([39], [40]).

Test [3] concerns Nurf55 MUT. The test can be described thus: Protein A affinity purification with mutant Nurf55 bait, mass spectrometry. The test is classed as cell-based, D. melanogaster (Dmel-2 cells). Conditions: for Number of peptides identified, Nurf55 MUT: IgG beads, Dmel-2 cells, mutant E361Q, D362N, E364Q, D365N, L35Y.
Text: as §1, §2, §3

In test [4] the test system is Nurf55 WT. The test can be described thus: GFP affinity purification with wild-type Nurf55 bait, mass spectrometry. The format is cell-based, D. melanogaster (Dmel-2 cells). Conditions: anti-GFP nanobody beads, Dmel-2 cells, triplicate, lowest number of unique peptides listed.
Text: as §1, §2

Test [5] concerns Nurf55 MUT. The test can be described thus: GFP affinity purification with mutant Nurf55 bait, mass spectrometry. The test is classed as cell-based, D. melanogaster (Dmel-2 cells). To be noted: anti-GFP nanobody beads, Dmel-2 cells, triplicate, lowest number of unique peptides listed, mutant E361Q, D362N, E364Q, D365N, L35Y.
Text: as §1, §2

B1: full-length MTA1: in vitro translated full-length MTA1; human MTA1 Uniprot Q13330 (protein, UniProt Q13330 1-715, looked up)
chain: MAANMYRVGDYVYFENSSSNPYLIRRIEELNKTANGNVEAKVVCFYRRRDISSTLIALADKHATLSVCYKAGPGADNGEEGEIEEEMENPEMVDLPEKLKHQLRHRELFLSRQLESLPATHIRGKCSVTLLNETESLKSYLEREDFFFYSLVYDPQQKTLLADKGEIRVGNRYQADITDLLKEGEEDGRDQSRLETQVWEAHNPLTDKQIDQFLVVARSVGTFARALDCSSSVRQPSLHMSAAAASRDITLFHAMDTLHKNIYDISKAISALVPQGGPVLCRDEMEEWSASEANLFEEALEKYGKDFTDIQQDFLPWKSLTSIIEYYYMWKTTDRYVQQKRLKAAEAESKLKQVYIPNYNKPNPNQISVNNVKAGVVNGTGAPGQSPGAGRACESCYTTQSYQWYSWGPPNMQCRLCASCWTYWKKYGGLKMPTRLDGERPGPNRSNMSPHGLPARSSGSPKFAMKTRQAFYLHTTKLTRIARRLCREILRPWHAARHPYLPINSAAIKAECTARLPEASQSPLVLKQAVRKPLEAVLRYLETHPRPPKPDPVKSVSSVLSSLTPAKVAPVINNGSPTILGKRSYEQHNGVDGNMKKRLLMPSRGLANHGQARHMGPSRNLLLNGKSYPTKVRLIRGGSLPPVKRRRMNWIDAPDDVFYMATEETRKIRKLLSSSETKRAARRPYKPIALRQSQALPPRPPPPAPVNDEPIVIED
modifications: full-length
notes: in vitro translated full-length MTA1; human MTA1 Uniprot Q13330
In the case of B1, the “competition of MTA1 with histone H4 for RbAp48” value in test [1] is “compete for the same binding surface on RbAp48”.

B2: MTA-like: known subunit of the D. melanogaster NuRD complex (protein)
chain: MATNMYRVGDYVYVETTPNSPYLIRRIEELNKNQTGNVEAKVMCFYRRRDLPNPLVQLADKHQLATAEDSPLATKLKKTWLRTPVSEEQAAQAVLDPSIAALDEERTSPTQTSGGGGSATGNSGSNSSGTSNNNSSSTAIGGGAGGSGGAGGDAEKGEALTSKQRYQIKHRELFLSRQVESIPATQIRGKCSVTLLNETESLQSYLNKDDTFFYCLVFDPNQKTLLADKGEIRVGSRYQCDIPAKLKDTATDDRKLEELESLVWTPEHSLTDRKIDQFLVVSRSIGTFARALDCSSSVKQPSLHMSAAAASRDITLFHAMNILHKHEYSIEESMSSLVPSTGPVLCRDEIEDWSASEANLFEEALEKYGKDFNDIRQDFLPWKTLKQIIEYYYMWKTTDRYVQQKRVKAVEAELKLKQVYIPQYNNNGKGNGTSTKAGGGIYNGTTNGSTDLSSNGKPCESCGTTKSSQWNSVSSGHSTSRLCLSCWEYWRRYGSMKSATKGDAGEGDAKKKSSSAASTPTATLAGLATTPTAVVDLNDDEKISDLTNRQLHRCSIVNCGKEFKLKTHLARHYAQAHGIAISSGSPRPIMKTRTAFYLHTNPMTRVARAICRSIVKPKKAARQSAYAINAMLVKQEFTNRISGKSQAEIKKLLLLKPKDRGSVTKIANRLGAPGSGPHEWLVLTPKDKMPLPAVVSFPKPPKAPDGSLVYDRVPNKSPDVVAVPADKELTIIPTQATSTIRKRAHEDQQLNGTEVTIVPSGPPAKRPNKDPMPSHCPSPEQFAAMMAASGQPLSRHHLNGKQKIAQMARGGNGRKQVISWMDAPDDVYFRANDTHKKTRKILSAVDLRRAARKPWRTLPIKPAAPEPSSRPIESQIVILD
B2: in test [2], the “Number of peptides identified, Nurf55 WT” value worked out at 57 and the “interaction with Nurf55” value is “pulled down by Nurf55”. Moreover, in test [3], the “Number of peptides identified, Nurf55 MUT” value (“Number … Nurf55 MUT” below) worked out at 0 and the “interaction with Nurf55mut” value is reported as “not observed”. For the same molecule, the “Number of peptides identified, Nurf55 WT” value in test [4] turned out to be 79. Besides, the “Number … Nurf55 MUT” value in test [5] stood at 6.

B3: Rpd3: known subunit of the D. melanogaster NuRD complex, Rpd3 (dHDAC) (protein)
chain: MQSHSKKRVCYYYDSDIGNYYYGQGHPMKPHRIRMTHNLLLNYGLYRKMEIYRPHKATADEMTKFHSDEYVRFLRSIRPDNMSEYNKQMQRFNVGEDCPVFDGLYEFCQLSAGGSVAAAVKLNKQASEICINWGGGLHHAKKSEASGFCYVNDIVLGILELLKYHQRVLYIDIDVHHGDGVEEAFYTTDRVMTVSFHKYGEYFPGTGDLRDIGAGKGKYYAVNIPLRDGMDDDAYESIFVPIISKVMETFQPAAVVLQCGADSLTGDRLGCFNLTVKGHGKCVEFVKKYNLPFLMVGGGGYTIRNVSRCWTYETSVALAVEIANELPYNDYFEYFGPDFKLHISPSNMTNQNTSEYLEKIKNRLFENLRMLPHAPGVQIQAIPEDAINDESDDEDKVDKDDRLPQSDKDKRIVPENEYSDSEDEGEGGRRDNRSYKGQRKRPRLDKDTNSNKASSETSSEIKDEKEKGDGADGEESTASNTNSNNNSNNKSDNDAGATANAGSGSGSGSGAGAKGAKENNI
Take B3: in test [2], the “Number of peptides identified, Nurf55 WT” value amounted to 8 and the “interaction with Nurf55” value is given as “pulled down by Nurf55”. In addition, in test [3], the “Number … Nurf55 MUT” value was 0 and the “interaction with Nurf55mut” value is reported as “not observed”. Moreover, the “Number of peptides identified, Nurf55 WT” value in test [4] was 36. Also, in test [5], the “Number … Nurf55 MUT” value came out at 9.
